This note sets out measurements from the supplement of paper PMC6379048.

What all share (experiment): Kd (EC50 corrected by depletion factor)
One data set addresses U2AF2 (UniProt P26368). Summed up:
(§1)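 Free RNA oligos (0 nM to 30 μM) competed for 1 h at 4°C in HEK293-FT lysate (2.5 mg protein/well) before a 30 min, 4°C pulldown with the same oligos on NHS-Sepharose beads. Bound proteins were quantified by label-free LC-MS/MS and normalised to the control. Kd was found by multiplying EC50, from a four-parameter log-logistic fit, by a protein-dependent depletion factor.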

A further data set addresses RPS17 (UniProt P08708). In outline: as §1
A further data set concerns the target T1, PABPN1 (UniProt Q86U42).
T1 sequence: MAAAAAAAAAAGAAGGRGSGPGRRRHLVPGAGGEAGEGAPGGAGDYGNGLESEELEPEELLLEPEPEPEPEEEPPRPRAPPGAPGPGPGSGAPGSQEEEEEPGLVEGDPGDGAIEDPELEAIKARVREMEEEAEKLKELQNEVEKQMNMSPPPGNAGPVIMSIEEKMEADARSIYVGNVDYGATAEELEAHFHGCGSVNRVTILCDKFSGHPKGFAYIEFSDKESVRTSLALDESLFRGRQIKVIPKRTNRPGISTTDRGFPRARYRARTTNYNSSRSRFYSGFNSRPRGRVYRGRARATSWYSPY
Summed up:
as §1

In a further data set the target is T2, FUBP1 (UniProt Q96AE4).
T2 sequence: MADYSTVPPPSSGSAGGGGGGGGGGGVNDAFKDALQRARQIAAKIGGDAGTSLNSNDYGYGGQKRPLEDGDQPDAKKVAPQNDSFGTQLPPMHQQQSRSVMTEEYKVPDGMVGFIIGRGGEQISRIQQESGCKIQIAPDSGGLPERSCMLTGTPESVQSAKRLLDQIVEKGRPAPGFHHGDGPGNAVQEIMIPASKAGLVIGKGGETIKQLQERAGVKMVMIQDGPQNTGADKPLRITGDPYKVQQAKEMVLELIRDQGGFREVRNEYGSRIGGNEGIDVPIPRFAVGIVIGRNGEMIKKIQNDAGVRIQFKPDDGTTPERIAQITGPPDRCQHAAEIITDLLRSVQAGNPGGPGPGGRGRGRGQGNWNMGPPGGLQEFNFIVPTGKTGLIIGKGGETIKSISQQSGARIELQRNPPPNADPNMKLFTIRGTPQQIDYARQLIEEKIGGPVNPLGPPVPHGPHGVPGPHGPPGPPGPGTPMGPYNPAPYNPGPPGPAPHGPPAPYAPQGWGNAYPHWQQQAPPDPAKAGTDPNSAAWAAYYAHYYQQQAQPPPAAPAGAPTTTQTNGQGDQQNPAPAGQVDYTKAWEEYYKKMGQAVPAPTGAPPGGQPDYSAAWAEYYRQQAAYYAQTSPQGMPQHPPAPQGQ
In outline: as §1

A further data set addresses T3, SF3B5 (UniProt Q9BWJ5).
T3 sequence: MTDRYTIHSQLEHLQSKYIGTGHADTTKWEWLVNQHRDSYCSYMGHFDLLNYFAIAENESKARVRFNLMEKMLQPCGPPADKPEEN
Summed up:
as §1

A further data set has as its target MRPL13 (UniProt Q9BYD1). Summed up:
as §1

The target of a further data set is MRPL21 (UniProt Q7Z2W9). In outline: as §1
Another data set deals with RPS3 (UniProt P23396). Summed up:
as §1

The target in another data set is MRPL50 (UniProt Q8N5N7). In outline:
as §1

The target of the next data set is T4, SRSF7 (UniProt Q16629).
T4 sequence: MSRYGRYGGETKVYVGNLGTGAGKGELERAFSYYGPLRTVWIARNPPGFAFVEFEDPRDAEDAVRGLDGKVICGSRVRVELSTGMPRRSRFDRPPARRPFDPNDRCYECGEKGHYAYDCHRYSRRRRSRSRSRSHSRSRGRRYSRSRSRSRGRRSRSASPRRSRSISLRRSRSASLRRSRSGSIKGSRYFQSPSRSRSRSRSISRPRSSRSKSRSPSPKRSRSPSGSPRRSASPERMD
Summed up: as §1

In the next data set the target is RPS5 (UniProt P46782). In outline: as §1
A further data set has as its target T5, HNRNPA0 (UniProt Q13151).
T5 sequence: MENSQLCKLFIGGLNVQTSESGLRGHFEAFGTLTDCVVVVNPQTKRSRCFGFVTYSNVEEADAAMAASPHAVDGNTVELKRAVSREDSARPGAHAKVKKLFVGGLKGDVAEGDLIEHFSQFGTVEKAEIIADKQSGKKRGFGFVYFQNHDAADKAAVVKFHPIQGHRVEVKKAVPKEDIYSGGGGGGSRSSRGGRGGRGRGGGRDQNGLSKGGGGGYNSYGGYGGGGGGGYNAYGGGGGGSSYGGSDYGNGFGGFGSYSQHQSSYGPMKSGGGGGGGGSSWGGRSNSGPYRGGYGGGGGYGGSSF
Summed up:
as §1

The target in a further data set is HNRNPA1 (UniProt P09651). In outline: as §1
HNRNPA1, sequence (P09651 whole entry): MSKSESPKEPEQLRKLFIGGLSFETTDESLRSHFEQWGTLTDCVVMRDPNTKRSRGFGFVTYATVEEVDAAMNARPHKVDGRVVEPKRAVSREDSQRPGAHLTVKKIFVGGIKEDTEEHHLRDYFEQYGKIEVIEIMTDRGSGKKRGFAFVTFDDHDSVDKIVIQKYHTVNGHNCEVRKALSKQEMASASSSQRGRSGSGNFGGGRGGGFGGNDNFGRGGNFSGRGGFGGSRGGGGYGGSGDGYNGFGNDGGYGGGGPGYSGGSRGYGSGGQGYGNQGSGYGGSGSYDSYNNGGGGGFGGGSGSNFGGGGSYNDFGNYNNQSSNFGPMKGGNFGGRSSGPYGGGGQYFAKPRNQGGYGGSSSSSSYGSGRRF

U2AF2, sequence (P26368 whole entry): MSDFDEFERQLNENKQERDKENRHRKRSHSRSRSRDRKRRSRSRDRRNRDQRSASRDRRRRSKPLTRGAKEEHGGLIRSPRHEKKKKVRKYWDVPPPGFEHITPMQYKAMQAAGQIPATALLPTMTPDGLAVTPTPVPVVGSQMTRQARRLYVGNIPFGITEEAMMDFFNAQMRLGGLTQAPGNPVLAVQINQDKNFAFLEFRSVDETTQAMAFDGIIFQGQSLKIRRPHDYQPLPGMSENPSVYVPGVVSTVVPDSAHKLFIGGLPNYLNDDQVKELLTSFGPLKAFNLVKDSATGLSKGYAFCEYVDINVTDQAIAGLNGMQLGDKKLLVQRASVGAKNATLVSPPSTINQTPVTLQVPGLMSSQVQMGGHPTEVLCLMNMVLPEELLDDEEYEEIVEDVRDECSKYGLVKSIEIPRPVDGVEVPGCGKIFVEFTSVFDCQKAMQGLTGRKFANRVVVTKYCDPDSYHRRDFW

Regarding AAUAAA, the dissociation constant (Kd) was 106 nM in the data set with U2AF2; 126 nM in the data set with RPS17; 368 nM in the data set with PABPN1; 673 nM with FUBP1; 766 nM with SF3B5.
CUGUCCU: the Kd with MRPL13 amounted to 78.4 nM; with MRPL21, 57.2 nM; with RPS3, 109 nM; in the data set with MRPL50, 149 nM; with SRSF7 it was 1000 nM; with RPS5, 146 nM.
With UAUUUAU, the Kd with HNRNPA0 was 3200 nM; with HNRNPA1 it was 1960 nM.
